From the supplement of paper PMC9112550, “Optimization of the antimicrobial peptide Bac7 by deep mutational scanning” (BMC Biology, 2022)

System: Escherichia coli TOP10
Assay: shrunken log2 fold change of peptide-encoding DNA abundance (4.5 h post-induction vs induction); higher = less antimicrobial activity (less host growth inhibition)
Conditions: time post-induction: 4.5 h; library: site-saturation at positions 5, 18, 19, 20
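Also: peptides expressed intracellularly from a pBAD plasmid library in pooled LB shake-flask culture, induced with 0.3% L-arabinose, DNA abundance read by NGS, three biological replicates, DESeq2 with apeglm shrinkage.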

How did the “shrunken log2 fold change” value turn out when RRIRPRPPRLPRPRPRPWCYPRP was run?
The value was -0.143.

For RRIRPRPPRLPRPRPRPWDQPRP, which “shrunken log2 fold change” value is on record?
Its value is -0.0786.

RRIRPRPPRLPRPRPRPWEYPRP was tested. Which “shrunken log2 fold change” value did it give?
The value was -0.05.

RRIRPRPPRLPRPRPRPWFDPRP was tested. Which “shrunken log2 fold change” value did it give?
Its value is -0.278.

With RRIRPRPPRLPRPRPRPWFFPRP as the sequence, how does the “shrunken log2 fold change” value read?
The value was -0.185.

With RRIRPRPPRLPRPRPRPWFGPRP as the sequence, how does the “shrunken log2 fold change” value read?
The value was -0.0238.

With RRIRPRPPRLPRPRPRPWFIPRP as the sequence, how does the “shrunken log2 fold change” value read?
Its value is -0.298.

RRIRPRPPRLPRPRPRPWHCPRP was tested. Which “shrunken log2 fold change” value did it give?
Its value is -0.0956.

For RRIRPRPPRLPRPRPRPWHFPRP, which “shrunken log2 fold change” value is on record?
Its value is -0.12.

RRIRPRPPRLPRPRPRPWINPRP was tested. Which “shrunken log2 fold change” value did it give?
Its value is -0.719.

With RRIRPRPPRLPRPRPRPWISPRP as the sequence, how does the “shrunken log2 fold change” value read?
Its value is -0.161.

Which “shrunken log2 fold change” value does the source give for RRIRPRPPRLPRPRPRPWITPRP here?
The value was -0.469.

RRIRPRPPRLPRPRPRPWNAPRP was tested. Which “shrunken log2 fold change” value did it give?
The value was -0.118.

For RRIRPRPPRLPRPRPRPWPSPRP, which “shrunken log2 fold change” value is on record?
The value was -0.125.

With RRIRPRPPRLPRPRPRPWQCPRP as the sequence, how does the “shrunken log2 fold change” value read?
The value was -0.0562.

How did the “shrunken log2 fold change” value turn out when RRIRPRPPRLPRPRPRPWQKPRP was run?
Its value is -0.179.

For RRIRPRPPRLPRPRPRPWRYPRP, which “shrunken log2 fold change” value is on record?
Its value is -0.0238.

RRIRPRPPRLPRPRPRPWSCPRP was tested. Which “shrunken log2 fold change” value did it give?
The value was -0.165.

Which “shrunken log2 fold change” value does the source give for RRIRPRPPRLPRPRPRPWSEPRP here?
The value was -0.0275.

RRIRPRPPRLPRPRPRPWSWPRP was tested. Which “shrunken log2 fold change” value did it give?
The value was 0.217.

Which “shrunken log2 fold change” value does the source give for RRIRPRPPRLPRPRPRPWSYPRP here?
Its value is -0.214.

Which “shrunken log2 fold change” value does the source give for RRIRPRPPRLPRPRPRPWTKPRP here?
The value was 0.0459.

Which “shrunken log2 fold change” value does the source give for RRIRPRPPRLPRPRPRPWVAPRP here?
The value was 0.014.

RRIRPRPPRLPRPRPRPWVSPRP was tested. Which “shrunken log2 fold change” value did it give?
Its value is 0.0233.

Which “shrunken log2 fold change” value does the source give for RRIRPRPPRLPRPRPRPWVWPRP here?
The value was 0.267.

For RRIRPRPPRLPRPRPRPWYHPRP, which “shrunken log2 fold change” value is on record?
The value was -0.516.

For RRIRPRPPRLPRPRPRPYCCPRP, which “shrunken log2 fold change” value is on record?
The value was -0.384.

For RRIRPRPPRLPRPRPRPYEMPRP, which “shrunken log2 fold change” value is on record?
Its value is -0.281.

For RRIRPRPPRLPRPRPRPYFPPRP, which “shrunken log2 fold change” value is on record?
The value was -0.26.

With RRIRPRPPRLPRPRPRPYFWPRP as the sequence, how does the “shrunken log2 fold change” value read?
Its value is -0.137.

RRIRPRPPRLPRPRPRPYHAPRP was tested. Which “shrunken log2 fold change” value did it give?
The value was -0.19.

RRIRPRPPRLPRPRPRPYIDPRP was tested. Which “shrunken log2 fold change” value did it give?
Its value is -0.331.

With RRIRPRPPRLPRPRPRPYKLPRP as the sequence, how does the “shrunken log2 fold change” value read?
Its value is -0.313.

Which “shrunken log2 fold change” value does the source give for RRIRPRPPRLPRPRPRPYKPPRP here?
Its value is -0.481.

How did the “shrunken log2 fold change” value turn out when RRIRPRPPRLPRPRPRPYKSPRP was run?
The value was -0.0798.

RRIRPRPPRLPRPRPRPYLAPRP was tested. Which “shrunken log2 fold change” value did it give?
Its value is -0.528.

Which “shrunken log2 fold change” value does the source give for RRIRPRPPRLPRPRPRPYLQPRP here?
Its value is -0.831.

How did the “shrunken log2 fold change” value turn out when RRIRPRPPRLPRPRPRPYMQPRP was run?
The value was -0.681.

With RRIRPRPPRLPRPRPRPYMRPRP as the sequence, how does the “shrunken log2 fold change” value read?
Its value is -0.000384.

Which “shrunken log2 fold change” value does the source give for RRIRPRPPRLPRPRPRPYQGPRP here?
Its value is -0.0345.

With RRIRPRPPRLPRPRPRPYQKPRP as the sequence, how does the “shrunken log2 fold change” value read?
The value was 0.0104.

How did the “shrunken log2 fold change” value turn out when RRIRPRPPRLPRPRPRPYRTPRP was run?
Its value is -0.111.

With RRIRPRPPRLPRPRPRPYSDPRP as the sequence, how does the “shrunken log2 fold change” value read?
Its value is -0.713.

With RRIRPRPPRLPRPRPRPYTEPRP as the sequence, how does the “shrunken log2 fold change” value read?
The value was -0.349.

Which “shrunken log2 fold change” value does the source give for RRIRPRPPRLPRPRPRPYWRPRP here?
Its value is -0.106.

With RRIRPRPPRLPRPRPRPYYDPRP as the sequence, how does the “shrunken log2 fold change” value read?
Its value is -0.745.

For RRIRQRPPRLPRPRPRPACMPRP, which “shrunken log2 fold change” value is on record?
The value was -0.294.

Which “shrunken log2 fold change” value does the source give for RRIRQRPPRLPRPRPRPACNPRP here?
The value was 0.0438.

Which “shrunken log2 fold change” value does the source give for RRIRQRPPRLPRPRPRPACVPRP here?
The value was 0.0809.

How did the “shrunken log2 fold change” value turn out when RRIRQRPPRLPRPRPRPADKPRP was run?
The value was -0.137.

RRIRQRPPRLPRPRPRPAFFPRP was tested. Which “shrunken log2 fold change” value did it give?
Its value is 0.11.

Which “shrunken log2 fold change” value does the source give for RRIRQRPPRLPRPRPRPAFYPRP here?
Its value is -0.0263.

For RRIRQRPPRLPRPRPRPAGRPRP, which “shrunken log2 fold change” value is on record?
Its value is 0.978.

How did the “shrunken log2 fold change” value turn out when RRIRQRPPRLPRPRPRPAHQPRP was run?
The value was 0.0203.

For RRIRQRPPRLPRPRPRPAIMPRP, which “shrunken log2 fold change” value is on record?
The value was -0.159.

How did the “shrunken log2 fold change” value turn out when RRIRQRPPRLPRPRPRPAIRPRP was run?
The value was -0.0284.

RRIRQRPPRLPRPRPRPAKCPRP was tested. Which “shrunken log2 fold change” value did it give?
Its value is 0.0161.

RRIRQRPPRLPRPRPRPALIPRP was tested. Which “shrunken log2 fold change” value did it give?
The value was 0.144.

How did the “shrunken log2 fold change” value turn out when RRIRQRPPRLPRPRPRPALLPRP was run?
The value was -0.0269.

For RRIRQRPPRLPRPRPRPALTPRP, which “shrunken log2 fold change” value is on record?
Its value is 0.128.

How did the “shrunken log2 fold change” value turn out when RRIRQRPPRLPRPRPRPAMAPRP was run?
Its value is -0.134.

Which “shrunken log2 fold change” value does the source give for RRIRQRPPRLPRPRPRPAMHPRP here?
Its value is -0.125.

Which “shrunken log2 fold change” value does the source give for RRIRQRPPRLPRPRPRPAMQPRP here?
Its value is 0.109.

How did the “shrunken log2 fold change” value turn out when RRIRQRPPRLPRPRPRPASAPRP was run?
Its value is 0.196.

RRIRQRPPRLPRPRPRPASFPRP was tested. Which “shrunken log2 fold change” value did it give?
Its value is 0.0572.

With RRIRQRPPRLPRPRPRPASTPRP as the sequence, how does the “shrunken log2 fold change” value read?
The value was -0.0855.

How did the “shrunken log2 fold change” value turn out when RRIRQRPPRLPRPRPRPATYPRP was run?
The value was -0.287.

For RRIRQRPPRLPRPRPRPAWMPRP, which “shrunken log2 fold change” value is on record?
The value was 0.0361.

For RRIRQRPPRLPRPRPRPAWSPRP, which “shrunken log2 fold change” value is on record?
The value was 0.183.

For RRIRQRPPRLPRPRPRPAWTPRP, which “shrunken log2 fold change” value is on record?
Its value is -0.177.

With RRIRQRPPRLPRPRPRPAYNPRP as the sequence, how does the “shrunken log2 fold change” value read?
Its value is 0.018.

With RRIRQRPPRLPRPRPRPCAAPRP as the sequence, how does the “shrunken log2 fold change” value read?
Its value is 0.339.

For RRIRQRPPRLPRPRPRPCAIPRP, which “shrunken log2 fold change” value is on record?
Its value is -0.0067.

With RRIRQRPPRLPRPRPRPCCKPRP as the sequence, how does the “shrunken log2 fold change” value read?
The value was -0.00783.

RRIRQRPPRLPRPRPRPCDEPRP was tested. Which “shrunken log2 fold change” value did it give?
The value was 0.0697.
